This note sets out measurements from article PMC8578170, “Electron carriers involved in autotrophic and heterotrophic acetogenesis in the thermophilic bacterium Thermoanaerobacter kivui” (Extremophiles, 2021).

The target in data set [1] is T1, His-MetFV (Thermoanaerobacter kivui, UniProt A0A097ATJ3).
T1 construct: gene metF; with Methylenetetrahydrofolate reductase subunit MetV
T1 sequence (A0A097ATJ3 1-291): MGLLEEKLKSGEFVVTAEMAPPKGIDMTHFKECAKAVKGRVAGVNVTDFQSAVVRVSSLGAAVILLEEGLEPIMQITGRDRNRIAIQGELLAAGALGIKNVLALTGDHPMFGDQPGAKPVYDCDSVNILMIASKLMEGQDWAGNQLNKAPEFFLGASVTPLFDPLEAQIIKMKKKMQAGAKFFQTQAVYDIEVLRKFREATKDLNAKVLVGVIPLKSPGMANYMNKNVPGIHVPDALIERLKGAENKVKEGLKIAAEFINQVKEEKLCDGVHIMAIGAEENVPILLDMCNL
T1 sequence (A0A097ATJ4 1-216 partner): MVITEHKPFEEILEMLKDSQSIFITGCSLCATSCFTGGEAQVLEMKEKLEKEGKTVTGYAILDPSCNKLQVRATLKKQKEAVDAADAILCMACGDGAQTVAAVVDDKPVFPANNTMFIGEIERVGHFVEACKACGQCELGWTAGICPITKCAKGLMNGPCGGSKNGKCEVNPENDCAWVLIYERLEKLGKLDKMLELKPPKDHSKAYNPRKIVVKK
Nature of the data set: thin-layer chromatography of flavin released from purified complex. The data set is classed as binding. To be noted: 10 µM FMN in purification buffers unless otherwise specified.

For data set [2], the target named is T1, His-MetFV. Nature of the data set: spectrophotometric methyl-THF:benzyl viologen oxidoreductase assay, […] nm. In kind it is biochemical. To be noted: 1 mM methyl-THF, 10 mM benzyl viologen; 50 mM KPi, 20 mM ascorbate, pH 7, 66 °C.
Data set [3] deals with T1, His-MetFV. Briefly: spectrophotometric reduced methyl viologen:methylene-THF oxidoreductase assay, […] nm. In kind it is biochemical. To be noted: methylene-THF formed from 0.5 mM THF and 1.5 mM formaldehyde; 10 mM methyl viologen, dithionite; 50 mM KPi, 20 mM ascorbate, pH 7, 66 °C.
Data set [4] addresses His-HydABC, electron-bifurcating hydrogenase complex of T. kivui (Thermoanaerobacter kivui). Nature of the data set: SEC; analytical size exclusion chromatography on a calibrated Superdex 200 column with size standards; buffer B (50 mM Tris/HCl, 150 mM NaCl, 20 mM MgSO4, 2 mM DTE, 20% glycerol, pH 7.5). Background: In gel filtration, larger molecules generally elute earlier.
Substrate in data set [5]: Cc1cc2nc3c(=O)[nH]c(=O)nc-3n(C[C@H](O)[C@H](O)[C@H](O)COP(=O)(O)O)c2cc1C
Briefly: spectrophotometric H2:Fd/NADP+ oxidoreductase assay. In kind it is biochemical, Thermoanaerobacter kivui. The conditions noted are these: H2, ferredoxin and NADP+ as co-substrates, pH 8, 66 °C, FMN stimulation of activity, error exceeds the value, varied: cofactor.

Substrate in the data set “purified protein”: NC(=O)c1ccc[n+]([C@@H]2O[C@H](COP(=O)(O)OP(=O)(O)OC[C@H]3O[C@@H](n4cnc5c(N)ncnc54)[C@H](OP(=O)(O)O)[C@@H]3O)[C@@H](O)[C@H]2O)c1
Nature of the data set: purified protein. The conditions noted are these: H2 and C. pasteurianum ferredoxin as co-substrates, 5 µM FMN, 50 mM EPPS, 10 mM NaCl, pH 8, 66 °C.

In data set [6] the target is His-HydABC, electron-bifurcating hydrogenase complex of T. kivui (Thermoanaerobacter kivui).
Data set [7] deals with the molecule itself. Briefly: SEC; analytical size exclusion chromatography on a calibrated Superdex 200 column with size standards; buffer B (50 mM Tris/HCl, 150 mM NaCl, 20 mM MgSO4, 2 mM DTE, 20% glycerol, pH 7.5).

By stoichiometry N is commonly meant the number of molecules, sites or subunits per partner or assembly. One may read the Km as the concentration of substrate that gives half-maximal velocity.

Turning to `Cc1cc2nc3c(=O)[nH]c(=O)nc-3n(C[C@H](O)[C@H](O)[C@H](O)COP(=O)(O)O)c2cc1C` [FMN], the “thin-layer chromatography of flavin released from purified complex” value at His-MetFV [1] is “subsequent separation of the flavin-containing supernatant by thin-layer chromatography (TLC), FMN could be detected”.
Regarding `CN1c2c(nc(N)[nH]c2=O)NC[C@@H]1CNc1ccc(C(=O)N[C@@H](CCC(=O)O)C(=O)O)cc1` [methyl-THF], on His-MetFV [2], the “spectrophotometric methyl-THF:benzyl viologen oxidoreductase assay, 600 nm” value was “oxidation of methyl-THF was not coupled to NAD^+, NADP^+ or Fd reduction”.
Take `Nc1nc2c(c(=O)[nH]1)N1CN(c3ccc(C(=O)N[C@@H](CCC(=O)O)C(=O)O)cc3)C[C@H]1CN2` [methylene-THF]: on His-MetFV [3], the “spectrophotometric reduced methyl viologen:methylene-THF oxidoreductase assay, 6” value was “The purified MetFV complex catalyzed the reduction of methylene-THF with reduced MV”.
For the molecule “His-HydABC, electron-bifurcating hydrogenase complex of T. kivui (from UniProt A0A097ATG4 1-630; A0A097ATI0 1-170)”, the stoichiometry N in data set [4] was 2.

B1: His-HydABC (Thermoanaerobacter kivui) (protein)
chain: MVKLKSIQELENLREKIKEAKKKEKIVIRICGGTGCRASGSLAVRDELVKVLKREGFANVDVNLSSDCLENTSEVHVKMTGCQGFCAQGPLMTIEPLGVFYVGVKPEDVEEIVEKSIKKNEIIERLLYHDPATGKTYVKRDENPFYAKQTRLVLKHCGTVDPASVYDYIAEGGYSAIAKALTMDRKQIIDEVIKSGLRGRGGAGFPTGEKWLGAYKNQSPKKYIICNGDEGDPGAFMDRSVMEGDPHKVIEGMMIGAYAIGSDEGYIYVRAEYPLAVQMLRKAIEECEKLGLLGDNILGTGFSFRLHVREGAGAFVCGESTALTYSIEGKRGMPRVRPPRTNECGLWEMPTVLNNVETFACIPEIILNGGEWFASIGTPTSTGTKIFALSGKVNRTGLVEVPMGLKLRELIFDIGGGIANNKKFKAVQLGGPSGGCVPESQLDLPIDFDSLSKAGAIMGSGGVVVVDEDTCMVDFAKFFTNFIVEESCGKCIPCREGNKKMLEILERITEGKGKEGDIELLEELGDVIISASLCGLGKTAPNPVLSTIKHFRDEYEAHIRDKKCPAGACQALAAYKIDPGKCIGCGKCVKVCPVGAISGEKKKPHVIDQSKCIKCGACAENCPKGAIYKG
notes: HydABC complex, 10xHis tag at 3' end of hydA, plasmid pMU131, produced homologously in T. kivui; Ni-NTA and Superdex 200; 348 kDa, dimer of HydABC (HydA 64, HydB 68, HydC 18 kDa); with Electron-bifurcating [FeFe] hydrogenase subunit HydA; Electron-bifurcating hydrogenase subunit HydC
For the molecule B1, the Km in data set [5] was 0.3 ± 0.8 µM; in “purified protein”, 48.8 ± 10.6 µM.

B2: ferredoxin isolated from Clostridium pasteurianum (natural protein)
chain: MAYKIADSCVSCGACASECPVNAISQGDSIFVIDADTCIDCGNCANVCPVGAPVQE
With B2, in data set [6], the Km for Fd in the NADP+-dependent H2:Fd oxidoreductase assay (Fd 0–200 µM, 66 °C) was found to be 13.6 µM.

B3: His-MetFV, methylene-THF reductase complex of T. kivui (complex, Thermoanaerobacter kivui)
chain 1: MGLLEEKLKSGEFVVTAEMAPPKGIDMTHFKECAKAVKGRVAGVNVTDFQSAVVRVSSLGAAVILLEEGLEPIMQITGRDRNRIAIQGELLAAGALGIKNVLALTGDHPMFGDQPGAKPVYDCDSVNILMIASKLMEGQDWAGNQLNKAPEFFLGASVTPLFDPLEAQIIKMKKKMQAGAKFFQTQAVYDIEVLRKFREATKDLNAKVLVGVIPLKSPGMANYMNKNVPGIHVPDALIERLKGAENKVKEGLKIAAEFINQVKEEKLCDGVHIMAIGAEENVPILLDMCNL
chain 2: MVITEHKPFEEILEMLKDSQSIFITGCSLCATSCFTGGEAQVLEMKEKLEKEGKTVTGYAILDPSCNKLQVRATLKKQKEAVDAADAILCMACGDGAQTVAAVVDDKPVFPANNTMFIGEIERVGHFVEACKACGQCELGWTAGICPITKCAKGLMNGPCGGSKNGKCEVNPENDCAWVLIYERLEKLGKLDKMLELKPPKDHSKAYNPRKIVVKK
notes: One MetFV heterodimer; By analytical SEC the purified complex (174 kDa) is consistent with three MetFV heterodimers; It contains iron-sulfur clusters and FMN; also called MTHFR; MetFV heterodimer; source: T. kivui (DSM 2030), plasmid pMU131_His-metFV, produced homologously, purified (Ni2+-NTA, Superdex 200)
Regarding B3, the “stoichiometry N” value in data set [7] was determined as 3.
